The values that follow come from patent US20110076342A1.

Non-standard residues stand in square brackets, D forms with d. No end group written: not given here.

The target in this test is full length PCNA's binding partners. The test is described as follows: cell-based or functional assay.

B1: R9-L133A (peptide)
peptide: RRRRRRRRRCCLGIPEQEA
For B1, the % cancer cell death, U937 cells, 30 µM peptide, 24 h, flow cytometry is 7%.

B2: R9-L127A (peptide)
peptide: RRRRRRRRRCCLAIPEQEY
Regarding B2, the % cancer cell death, U937 cells, 30 µM peptide, 24 h, flow cytometry worked out at 47%.

B3: R9-L131A (peptide)
peptide: RRRRRRRRRCCLGIPEAEY
For B3, the % cancer cell death, U937 cells, 30 µM peptide, 24 h, flow cytometry turned out to be 93%.

B4: R9-caPep (D-nonaarginine linked caPeptide, …) (peptide)
peptide: [dR][dR][dR][dR][dR][dR][dR][dR][dR]CCLGIPEQEY
modifications: cysteine pairing not given here
In the case of B4, the % Dead Cells, MCF 7 (breast cancer) cells, 50 µM R9-caPeptide, 48 h, flow cytometry was found to be 91.5%; the % Dead Cells, MCF 10A (non-malignant) breast cells, 50 µM R9-caPeptide, 48 h, flow cytometry is 18.2%; the % cancer cell death, U937 cells, 30 µM peptide, 24 h, flow cytometry stood at 43%; the apoptotic cells, U937 cells, 50 uM R9-caPep was determined as 93%.

B5: R9-L128A (peptide)
peptide: RRRRRRRRRCCLGAPEQEY
The molecule B5 came in with a % cancer cell death, U937 cells, 30 µM peptide, 24 h, flow cytometry of 21%.

B6: R9-L126A (peptide)
peptide: RRRRRRRRRCCAGIPEQEY
B6 gave a % cancer cell death, U937 cells, 30 µM peptide, 24 h, flow cytometry of 8%.

B7: R9-L130A (peptide)
peptide: RRRRRRRRRCCLGIPAQEY
As for B7, the % cancer cell death, U937 cells, 30 µM peptide, 24 h, flow cytometry worked out at 45%.

B8: R9-L132A (peptide)
peptide: RRRRRRRRRCCLGIPEQAY
As for B8, the % cancer cell death, U937 cells, 30 µM peptide, 24 h, flow cytometry turned out to be 88%.

B9: R9-L129A (peptide)
peptide: RRRRRRRRRCCLGIAEQEY
B9: the % cancer cell death, U937 cells, 30 µM peptide, 24 h, flow cytometry was found to be 80%.
